Literature values, collected in publication PMC11816975, “Bioactive Peptides from Milk Proteins with Antioxidant, Anti-Inflammatory, and Antihypertensive Activities” (Foods, 2025).

B1: bLF: bovine lactoferrin, orthologue compared with eLF (protein, UniProt P24627 20-708, looked up)
Lactotransferrin: APRKNVRWCTISQPEWFKCRRWQWRMKKLGAPSITCVRRAFALECIRAIAEKKADAVTLDGGMVFEAGRDPYKLRPVAAEIYGTKESPQTHYYAVAVVKKGSNFQLDQLQGRKSCHTGLGRSAGWIIPMGILRPYLSWTESLEPLQGAVAKFFSASCVPCIDRQAYPNLCQLCKGEGENQCACSSREPYFGYSGAFKCLQDGAGDVAFVKETTVFENLPEKADRDQYELLCLNNSRAPVDAFKECHLAQVPSHAVVARSVDGKEDLIWKLLSKAQEKFGKNKSRSFQLFGSPPGQRDLLFKDSALGFLRIPSKVDSALYLGSRYLTTLKNLRETAEEVKARYTRVVWCAVGPEEQKKCQQWSQQSGQNVTCATASTTDDCIVLVLKGEADALNLDGGYIYTAGKCGLVPVLAENRKSSKHSSLDCVLRPTEGYLAVAVVKKANEGLTWNSLKDKKSCHTAVDRTAGWNIPMGLIVNQTGSCAFDEFFSQSCAPGADPKSRLCALCAGDDQGLDKCVPNSKEKYYGYTGAFRCLAEDVGDVAFVKNDTVWENTNGESTADWAKNLNREDFRLLCLDGTRKPVTEAQSCHLAVAPNHAVVSRSDRAAHVKQVLLHQQALFGKNGKNCPDKFCLFKSETKNLLFNDNTECLAKLGGRPTYEEYLGTEYVTAIANLKKCSTSPLLEACAFLTR
B2: cLF: isolated camel lactoferrin (protein, UniProt Q9TUM0 20-708, looked up)
Lactotransferrin: ASKKSVRWCTTSPAESSKCAQWQRRMKKVRGPSVTCVKKTSRFECIQAISTEKADAVTLDGGLVYDAGLDPYKLRPIAAEVYGTENNPQTHYYAVAIAKKGTNFQLNQLQGLKSCHTGLGRSAGWNIPMGLLRPFLDWTGPPEPLQKAVAKFFSASCVPCVDGKEYPNLCQLCAGTGENKCACSSQEPYFGYSGAFKCLQDGAGDVAFVKDSTVFESLPAKADRDQYELLCPNNTRKPVDAFQECHLARVPSHAVVARSVNGKEDLIWKLLVKAQEKFGRGKPSGFQLFGSPAGQKDLLFKDSALGLLRISSKIDSGLYLGSNYITAIRGLRETAAEVELRRAQVVWCAVGSDEQLKCQEWSRQSNQSVVCATASTTEDCIALVLKGEADALSLDGGYIYIAGKCGLVPVLAESQQSPESSGLDCVHRPVKGYLAVAVVRKANDKITWNSLRGKKSCHTAVDRTAGWNIPMGLLSKNTDSCRFDEFLSQSCAPGSDPRSKLCALCAGNEEGQNKCVPNSSERYYGYTGAFRCLAENVGDVAFVKDVTVLDNTDGKNTEQWAKDLKLGDFELLCLNGTRKPVTEAESCHLAVAPNHAVVSRIDKVAHLEQVLLRQQAHFGRNGRDCPGKFCLFQSKTKNLLFNDNTECLAKLQGKTTYEEYLGPQYVTAIAKLRRCSTSPLLEACAFLMR

What was measured:
[1] = parameters: method as in PMID 23768340; conditions: at 100 µg/mL
NO production = system: NO production; parameters: method as in PMID 23768340; conditions: at 100 µg/mL

Molecule	DPPH• radical scavenging capacity (at 500 µg/mL)	DPPH• inhibition (at 100 µg/mL, ref Habib et al. 55)	ferric reducing power [1]	inhibition of NO production (NO production)
B1	approximately 33%	–	–	–
B2	–	2.77%	0.317 mM Fe^2+	about 5%
